# Data taken from paper PMC6218797, “A Novel Thermostable GH3 β-Glucosidase from Talaromyce leycettanus with Broad Substrate Specificity and Significant Soybean Isoflavone Glycosides-Hydrolyzing Capability” (BioMed Research International, 2018).
# T1: Bgl3B (Rasamsonia emersonii, UniProt A0A343J2C3)
# T1 construct: pPIC9, secreted from Pichia pastoris GS115; N-glycosylated, about 100 kDa on SDS-PAGE
# T1 sequence (A0A343J2C3 1-841): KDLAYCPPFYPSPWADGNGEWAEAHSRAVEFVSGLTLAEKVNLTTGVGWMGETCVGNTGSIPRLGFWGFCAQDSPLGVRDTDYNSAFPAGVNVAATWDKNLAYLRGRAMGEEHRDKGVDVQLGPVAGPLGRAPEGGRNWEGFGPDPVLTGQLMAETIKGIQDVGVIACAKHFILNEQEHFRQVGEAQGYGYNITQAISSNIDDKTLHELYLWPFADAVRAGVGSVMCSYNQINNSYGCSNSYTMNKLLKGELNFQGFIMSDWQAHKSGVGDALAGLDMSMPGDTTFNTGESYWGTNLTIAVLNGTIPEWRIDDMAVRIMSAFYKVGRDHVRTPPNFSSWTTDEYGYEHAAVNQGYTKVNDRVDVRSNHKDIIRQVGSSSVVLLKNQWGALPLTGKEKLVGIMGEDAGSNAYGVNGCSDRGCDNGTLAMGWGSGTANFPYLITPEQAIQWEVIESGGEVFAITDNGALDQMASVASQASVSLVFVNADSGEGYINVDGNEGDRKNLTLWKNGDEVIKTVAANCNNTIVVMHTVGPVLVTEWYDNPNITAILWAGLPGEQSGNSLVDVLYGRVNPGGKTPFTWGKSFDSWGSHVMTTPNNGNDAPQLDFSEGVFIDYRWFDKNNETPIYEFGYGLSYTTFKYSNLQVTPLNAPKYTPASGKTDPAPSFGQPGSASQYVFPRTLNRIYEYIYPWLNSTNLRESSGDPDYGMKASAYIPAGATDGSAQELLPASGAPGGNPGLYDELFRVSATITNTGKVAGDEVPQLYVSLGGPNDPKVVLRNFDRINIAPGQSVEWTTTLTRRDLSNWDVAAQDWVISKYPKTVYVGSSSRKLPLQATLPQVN
# Experiments:
# Bgl3B = molecular target: T1, Bgl3B; assay: pNP release at […] nm, Dixon plot; type: biochemical; details: substrate pNPG 3 or 4 mM; pH 4.5, 65°C, citric acid-Na2HPO4; inhibition mode not stated
# purified protein = substrate: O=[N+]([O-])c1ccc(O[C@@H]2O[C@H](CO)[C@@H](O)[C@H](O)[C@H]2O)cc1; assay: purified protein; details: pH 4.5, 65°C, 5 min, 0.2-1.5 mM substrate
molecule,measurement,setting,value
OC[C@H]1OC(O)[C@H](O)[C@@H](O)[C@@H]1O (stereo partly drawn) [glucose],Ki,Bgl3B,7.1 mM
Bgl3B (Rasamsonia emersonii) (protein) KDLAYCPPFYPSPWADGNGEWAEAHSRAVEFVSGLTLAEKVNLTTGVGWMGETCVGNTGSIPRLGFWGFCAQDSPLGVRDTDYNSAFPAGVNVAATWDKNLAYLRGRAMGEEHRDKGVDVQLGPVAGPLGRAPEGGRNWEGFGPDPVLTGQLMAETIKGIQDVGVIACAKHFILNEQEHFRQVGEAQGYGYNITQAISSNIDDKTLHELYLWPFADAVRAGVGSVMCSYNQINNSYGCSNSYTMNKLLKGELNFQGFIMSDWQAHKSGVGDALAGLDMSMPGDTTFNTGESYWGTNLTIAVLNGTIPEWRIDDMAVRIMSAFYKVGRDHVRTPPNFSSWTTDEYGYEHAAVNQGYTKVNDRVDVRSNHKDIIRQVGSSSVVLLKNQWGALPLTGKEKLVGIMGEDAGSNAYGVNGCSDRGCDNGTLAMGWGSGTANFPYLITPEQAIQWEVIESGGEVFAITDNGALDQMASVASQASVSLVFVNADSGEGYINVDGNEGDRKNLTLWKNGDEVIKTVAANCNNTIVVMHTVGPVLVTEWYDNPNITAILWAGLPGEQSGNSLVDVLYGRVNPGGKTPFTWGKSFDSWGSHVMTTPNNGNDAPQLDFSEGVFIDYRWFDKNNETPIYEFGYGLSYTTFKYSNLQVTPLNAPKYTPASGKTDPAPSFGQPGSASQYVFPRTLNRIYEYIYPWLNSTNLRESSGDPDYGMKASAYIPAGATDGSAQELLPASGAPGGNPGLYDELFRVSATITNTGKVAGDEVPQLYVSLGGPNDPKVVLRNFDRINIAPGQSVEWTTTLTRRDLSNWDVAAQDWVISKYPKTVYVGSSSRKLPLQATLPQVN,Km,purified protein,1030 µM
same,kcat,purified protein,714 s⁻¹
